We go through 2 molecules from patent US20230212228A1 (ETH Z RICH, published 2023).

Experiment [1] deals with T1, Fib1, N-terminal 30 kDa fragment of fibronectin (Homo sapiens (Human), UniProt P02751 32-290).
T1 construct: also called Fib1 construct; 30 kDa N-terminal fragment of fibronectin containing the N-terminal FnI1-5 modules
The experiment is described as follows: fluorescence polarization/anisotropy, Cy5-labelled peptide (48 nM) titrated with Fib1 in PBS pH 7.4. On the technique in general: Polarisation of emitted light reports the rotation of a fluorescent probe.

Experiment [2] has as its target T1, Fib1, N-terminal 30 kDa fragment of …. The experiment is described as follows: fluorescence polarization, Cy5-labelled peptide titrated with Fib1.

Groups on a side chain read outwards from the residue. No end group written: not given here. Mal‑Cy5 = Cy5-maleimide thiol adduct on the Cys side chain

T1 sequence (P02751 32-290 limits assumed): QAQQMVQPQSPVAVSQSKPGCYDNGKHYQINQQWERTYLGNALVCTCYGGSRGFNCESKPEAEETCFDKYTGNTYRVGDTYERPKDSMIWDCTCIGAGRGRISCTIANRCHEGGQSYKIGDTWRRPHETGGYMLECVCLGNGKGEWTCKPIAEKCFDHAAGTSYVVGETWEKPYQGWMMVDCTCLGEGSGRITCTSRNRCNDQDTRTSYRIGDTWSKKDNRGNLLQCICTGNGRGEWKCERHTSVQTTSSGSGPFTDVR

B1: Cy5-FnBPA5 (peptide)
peptide: C([maleimide-Cy5])GGGQVTTESNLVEFDEESTKGIVTGAVSDHTTVEDTK
modifications: not fully specified
notes: A payload-GGG- format by amide bond is also mentioned; also called Cy5-labelled FnBPA5; FnBPA5 peptide
Turning to B1, the Kd (as a rule, a measure of binding affinity in units of concentration) in experiment [1] stood at 0.102 µM. In other words, the sub-micromolar range.

B2: Cy5-FnBPA5.1 (peptide)
peptide: C(Mal‑Cy5)GGGQVTTGSNLVEFTEESLGIVTGAVSDHTTVEDT
notes: also called Cy5-labelled FnBPA5.1
In the case of B2, the binding result in experiment [2] is listed as “binds”.
